Assay results as given in US20200407440A1, “AMATOXIN ANTIBODY-DRUG CONJUGATES AND USES THEREOF” (Magenta Therapeutics, Inc., priority 2019, published 2020).

What was measured:
[1] = molecular target: human CD2 (human) (UniProt P06729); assay: cell-based or functional assay
[2] = molecular target: human CD2 (human) (UniProt P06729); assay: flow cytometry of primary human T cells at day 5; competition with the staining anti-CD2 clone RPA-2.10 [left panel]

UniProt P06729, sequence (P06729 25-351 limits assumed): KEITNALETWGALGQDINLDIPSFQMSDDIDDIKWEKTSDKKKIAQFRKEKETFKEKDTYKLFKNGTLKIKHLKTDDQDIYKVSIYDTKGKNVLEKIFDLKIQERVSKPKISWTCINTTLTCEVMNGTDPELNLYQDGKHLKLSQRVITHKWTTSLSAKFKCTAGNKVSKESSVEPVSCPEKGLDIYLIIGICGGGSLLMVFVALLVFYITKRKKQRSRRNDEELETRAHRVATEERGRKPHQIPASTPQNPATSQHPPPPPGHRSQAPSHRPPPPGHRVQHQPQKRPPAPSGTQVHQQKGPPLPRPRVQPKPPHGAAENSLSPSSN

| Substance | % Efficacy, primary human T cell killing assay [1] [%] | IC50 (pM), primary human T cell killing assay (5 days, flow cytometry) [1] [pM] | IC50 (read off the curve) [2] [pM] |
| --- | --- | --- | --- |
| CD2 RPA2.10 D265C/H435A ADC A (antibody) | 85.7 | 54 | 100 |
| CD2 RPA naked (antibody) | – | – | 80 |
